Test results as given in article PMC10426277 (European journal of pharmacology, 2023).

Assays:
Test in all cases: SPR
[1] = target: T1, Peroxiredoxin 1 mutant, last 22 amino acids of the C-terminus deleted (human, UniProt Q06830 1-177)
T1 sequence (looked up): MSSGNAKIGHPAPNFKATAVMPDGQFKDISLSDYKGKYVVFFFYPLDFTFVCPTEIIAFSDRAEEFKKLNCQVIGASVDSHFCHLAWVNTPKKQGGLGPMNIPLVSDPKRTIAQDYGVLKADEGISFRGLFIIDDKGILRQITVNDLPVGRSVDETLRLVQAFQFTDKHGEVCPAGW

[2] = target: T2, Peroxiredoxin 1 wildtype, recombinant full-length (human, UniProt Q06830 1-199)
T2 sequence (looked up): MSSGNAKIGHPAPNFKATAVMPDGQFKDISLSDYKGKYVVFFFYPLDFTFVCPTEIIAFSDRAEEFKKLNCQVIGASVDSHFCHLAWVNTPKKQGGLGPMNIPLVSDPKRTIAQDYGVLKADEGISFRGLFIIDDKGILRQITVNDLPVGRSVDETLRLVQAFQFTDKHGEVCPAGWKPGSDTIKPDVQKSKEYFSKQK

[3] = target: T3, Peroxiredoxin 4 mutant, C-terminal 22 amino acids deleted (human, UniProt Q13162 38-249)
T3 sequence (looked up): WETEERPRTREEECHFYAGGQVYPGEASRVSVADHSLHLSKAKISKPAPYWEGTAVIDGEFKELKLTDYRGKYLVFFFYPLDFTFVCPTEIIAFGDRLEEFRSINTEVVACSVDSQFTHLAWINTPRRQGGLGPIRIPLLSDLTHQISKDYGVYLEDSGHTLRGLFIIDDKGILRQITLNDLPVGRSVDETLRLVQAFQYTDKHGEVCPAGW

Kd [1]: 0.175 µM
koff [1]: 0.000444 s⁻¹
kon [1]: 2540 M⁻¹ s⁻¹
Kd [2]: 769 µM
koff [2]: 0.000532 s⁻¹
kon [2]: 0.693 M⁻¹ s⁻¹
Kd [3]: 29.7 µM
koff [3]: 0.00269 s⁻¹
kon [3]: 90.4 M⁻¹ s⁻¹
B1: Sulfiredoxin (Srx), recombinant full-length (enzyme)
chain: not shown
